Biological target: GSK3β used in the surface plasmon resonance binding assays (UniProt P49841 1-420)
Test: SPR

GSK3β used in the surface plasmon resonance binding assays, sequence (P49841 whole entry): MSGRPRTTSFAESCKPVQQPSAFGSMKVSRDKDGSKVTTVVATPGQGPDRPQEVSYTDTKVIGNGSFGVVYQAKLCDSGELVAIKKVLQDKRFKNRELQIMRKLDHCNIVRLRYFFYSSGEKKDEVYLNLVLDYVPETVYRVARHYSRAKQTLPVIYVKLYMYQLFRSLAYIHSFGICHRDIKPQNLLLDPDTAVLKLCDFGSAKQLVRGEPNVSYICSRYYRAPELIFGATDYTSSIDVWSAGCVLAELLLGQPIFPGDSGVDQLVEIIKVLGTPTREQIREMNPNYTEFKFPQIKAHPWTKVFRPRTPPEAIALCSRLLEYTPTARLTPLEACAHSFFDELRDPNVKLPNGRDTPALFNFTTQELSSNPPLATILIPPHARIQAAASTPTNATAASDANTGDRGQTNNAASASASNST

Row | Binder | stoichiometry N
1 | PADIASLPGFQDTFTSSFSFIQLSLGAAGERGEAEGCLPSREAE (peptide, UniProt Q811T9 195-238, looked up) [DISCtide-1 (mDISC1 amino acids 195 to 238)] | 2 peptide:protein
2 | SFSFIQLSLGAAGER (peptide, UniProt Q811T9 211-225, looked up) [DISCtide2 (15-mer peptide, mDISC1 amino acids 211 to 225)] | 2 peptide:protein
